Measurements: the supplement of paper PMC6379048

Experiments:
Experiment in all cases: EC50 of free RNA motif oligo competing protein binding to immobilised probe
PIP5K1A = PIP5K1A (UniProt Q99755)
In short: (§1)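 HEK293-FT lysate (2.5 mg protein/well) was treated with free RNA oligos (0 nM to 30 μM) for 1 h at 4°C, then with the same oligos on NHS-Sepharose beads for 30 min at 4°C. Bound proteins were quantified by label-free LC-MS/MS relative to the control. EC50 came from a four-parameter log-logistic fit, and Kd is EC50 times a protein-dependent depletion factor.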

TIAL1 = biological target: T1, TIAL1 (UniProt Q01085)
T1 sequence: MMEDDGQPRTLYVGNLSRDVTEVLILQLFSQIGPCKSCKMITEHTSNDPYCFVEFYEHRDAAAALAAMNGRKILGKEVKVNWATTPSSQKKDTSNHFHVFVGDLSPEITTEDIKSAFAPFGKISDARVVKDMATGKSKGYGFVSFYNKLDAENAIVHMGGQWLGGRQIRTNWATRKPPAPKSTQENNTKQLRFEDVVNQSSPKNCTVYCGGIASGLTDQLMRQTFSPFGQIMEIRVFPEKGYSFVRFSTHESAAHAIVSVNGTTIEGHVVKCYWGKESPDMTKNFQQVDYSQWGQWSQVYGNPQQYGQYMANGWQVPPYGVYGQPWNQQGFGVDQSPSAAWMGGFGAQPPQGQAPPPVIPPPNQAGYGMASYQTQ
In short: as §1

UPF1 = biological target: T2, UPF1 (UniProt Q92900)
T2 sequence: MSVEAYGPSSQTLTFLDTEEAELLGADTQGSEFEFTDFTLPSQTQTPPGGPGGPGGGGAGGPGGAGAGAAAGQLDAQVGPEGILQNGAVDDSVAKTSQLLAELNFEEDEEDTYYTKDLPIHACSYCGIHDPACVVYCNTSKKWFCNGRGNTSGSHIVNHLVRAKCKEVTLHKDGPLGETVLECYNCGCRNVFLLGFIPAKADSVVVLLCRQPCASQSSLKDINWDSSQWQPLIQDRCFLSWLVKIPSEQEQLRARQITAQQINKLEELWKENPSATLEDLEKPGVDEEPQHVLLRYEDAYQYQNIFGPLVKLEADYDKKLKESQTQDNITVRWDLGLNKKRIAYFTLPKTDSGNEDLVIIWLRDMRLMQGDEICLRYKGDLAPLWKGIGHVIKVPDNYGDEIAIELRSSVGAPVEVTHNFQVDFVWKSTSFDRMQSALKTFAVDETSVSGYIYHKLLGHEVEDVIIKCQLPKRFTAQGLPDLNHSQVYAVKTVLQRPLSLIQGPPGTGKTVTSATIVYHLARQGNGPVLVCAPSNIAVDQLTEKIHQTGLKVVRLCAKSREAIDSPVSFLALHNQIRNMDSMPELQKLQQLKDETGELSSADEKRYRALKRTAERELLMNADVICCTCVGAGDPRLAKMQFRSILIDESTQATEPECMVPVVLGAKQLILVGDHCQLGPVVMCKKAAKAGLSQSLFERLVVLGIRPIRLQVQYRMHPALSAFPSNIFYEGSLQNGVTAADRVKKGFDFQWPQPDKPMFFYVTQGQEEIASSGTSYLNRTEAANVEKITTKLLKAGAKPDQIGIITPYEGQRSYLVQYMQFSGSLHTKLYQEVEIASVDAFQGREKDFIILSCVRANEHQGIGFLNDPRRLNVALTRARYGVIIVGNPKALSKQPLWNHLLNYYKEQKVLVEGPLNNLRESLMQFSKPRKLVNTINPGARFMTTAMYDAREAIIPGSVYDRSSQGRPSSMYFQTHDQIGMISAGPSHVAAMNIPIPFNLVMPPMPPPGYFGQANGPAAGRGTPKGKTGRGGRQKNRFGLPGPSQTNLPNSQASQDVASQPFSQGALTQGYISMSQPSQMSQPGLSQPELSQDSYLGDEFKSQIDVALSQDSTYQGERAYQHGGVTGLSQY
In short: as §1

ICT1 = ICT1 (UniProt Q14197)
In short: as §1

ERAL1 = biological target: T3, ERAL1 (UniProt O75616)
T3 sequence: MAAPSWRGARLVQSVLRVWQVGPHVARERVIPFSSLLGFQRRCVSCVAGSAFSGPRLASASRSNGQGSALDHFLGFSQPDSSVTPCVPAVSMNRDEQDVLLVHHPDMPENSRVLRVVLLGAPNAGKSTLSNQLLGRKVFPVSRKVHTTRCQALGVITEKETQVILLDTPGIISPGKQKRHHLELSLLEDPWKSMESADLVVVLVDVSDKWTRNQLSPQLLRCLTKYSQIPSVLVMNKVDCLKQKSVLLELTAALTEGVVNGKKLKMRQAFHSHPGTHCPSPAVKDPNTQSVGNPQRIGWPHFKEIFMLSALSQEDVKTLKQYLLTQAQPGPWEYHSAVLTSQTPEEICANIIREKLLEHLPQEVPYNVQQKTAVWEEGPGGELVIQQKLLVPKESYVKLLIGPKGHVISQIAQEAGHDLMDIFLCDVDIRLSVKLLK
In short: as §1

MRPS31 = MRPS31 (UniProt Q92665)
In short: as §1

Chain of PIP5K1A (Q99755 whole entry): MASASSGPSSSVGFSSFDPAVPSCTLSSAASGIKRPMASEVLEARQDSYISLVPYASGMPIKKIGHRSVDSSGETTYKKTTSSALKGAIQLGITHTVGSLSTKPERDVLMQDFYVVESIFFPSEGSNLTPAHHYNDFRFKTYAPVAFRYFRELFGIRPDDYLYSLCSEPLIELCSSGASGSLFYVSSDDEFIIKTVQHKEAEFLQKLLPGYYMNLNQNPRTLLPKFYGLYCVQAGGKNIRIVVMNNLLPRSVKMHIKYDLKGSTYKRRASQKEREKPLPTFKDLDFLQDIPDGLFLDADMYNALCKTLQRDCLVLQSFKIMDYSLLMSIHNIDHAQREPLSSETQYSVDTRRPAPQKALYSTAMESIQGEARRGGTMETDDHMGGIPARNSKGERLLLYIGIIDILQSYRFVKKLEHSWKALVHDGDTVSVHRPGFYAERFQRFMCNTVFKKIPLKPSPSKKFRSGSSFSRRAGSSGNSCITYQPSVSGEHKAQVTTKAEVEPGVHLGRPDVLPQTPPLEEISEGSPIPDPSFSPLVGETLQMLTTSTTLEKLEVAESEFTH

## AAUAAA
PIP5K1A
  EC50: 2250 nM
TIAL1
  EC50: 546 nM
UPF1
  EC50: 4900 nM

## CUGUCCU
ICT1
  EC50: 125 nM

## UAUUUAU
ERAL1
  EC50: 27.8 nM
MRPS31
  EC50: 93.7 nM
